Molecular target: T1, CTLA-4 (Homo sapiens, UniProt P16410)
T1 sequence (P16410 36-223): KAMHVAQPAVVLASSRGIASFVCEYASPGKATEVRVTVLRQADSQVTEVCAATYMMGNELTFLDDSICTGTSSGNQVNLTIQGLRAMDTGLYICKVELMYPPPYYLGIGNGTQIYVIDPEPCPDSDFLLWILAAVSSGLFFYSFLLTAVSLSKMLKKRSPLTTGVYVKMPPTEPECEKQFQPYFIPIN
Experiment: ELISA binding of clones after Affinity Maturation with random library (Tables 10, 11)
Settings: CTLA-4 binding ELISA of clones after Affinity Maturation from random (NNS) library; signal/noise ratio; clones of 4th or 5th round
Procedure: After each round of Affinity Maturation, the cyclic peptide genes were recovered and subcloned into pET-Mal vector (FIG. 2) in the same manner as described above to perform base sequence analysis. For the 94 single colonies analyzed for sequence, E. coli transformants were inoculated into 100 μL of 2×YT medium containing ampicillin (final concentration 50 μg/mL), incubated at 37° C. for 3-5 hours (OD600=0.5-0.8), then added with IPTG (final concentration 0.5 mM) and incubated at 25° C. overnight. 10 μL of E. coli cultured medium was added with 90 μL of PBS and 40 μL of lysis reagent (20 μL BugBuster Protein Extraction Reagent (Novagen), 20 μL Lysozyme solution 2.5 mg/mL) to lyse E. coli cells for 1 hour at room temperature. The cell lysate was added with 40 μL of 12.5% skim milk solution (TBST) and blocked for 1 hour at room temperature. In parallel, antigen protein was immobilized overnight at 4° C. in 384-well plates at 100 ng/20 μL per well, and each well was washed twice with 100 μL/well of TBST, added with 100 μL/well of 5% skim milk solution (TBST) for blocking for 1 hour at room temperature, and washed twice with 100 μL/well of TBST to obtain antigen-immobilized plates. 20 μL/well of blocking-treated E. coli extract was added to the antigen-immobilized plates and gently stirred at room temperature using a plate mixer. After 1 hour, the plates were washed 5 times with 100 μL/well of TBST, 20 μL/well of anti-FLAG M2-HRP conjugate (1:2000 dilution, Sigma) was added and gently stirred on a plate mixer for 1 hour at room temperature. The plates were washed 5 times with 100 μL/well of TBST, and binding of cyclic peptides to the antigen was detected by 20 μL/well of chromogenic substrate (0.4 mg/mL 3,3′,5,5′-Tetramethyl-benzidine, 0.01% hydrogen peroxide). After 15 minutes of reaction at room temperature, the reaction was stopped with 20 μL/well of 2N HCl, and absorbance at 450 nm was measured using a plate reader (infinite F200: TECAN) (Table 5).
Oligo DNAs of a library were synthesized (see below), in which amino acid residues (positions 1, 4, 8, 10, +1 and +2) (corresponding to X1, […], X8, X10, X+1 and X+2) other than those essential or advantageous for CTLA-4 binding (2H, 3P, 5L, 6P, 7I, 9S, 11H, 12F) identified by alanine scanning were randomized (NNS).
Affinity Maturation was performed in the same manner as described above. The amount of biotinylated CTLA-4 immobilized on the magnetic beads was 10 pmol in the 1st round, 2 pmol in the 2nd round, and 1 pmol in the 3nd-5th rounds, respectively. The washing period was 2 hours for the 1st round, 19 hours for the 2nd round, 67 hours for the 3nd round, 140 hours for the 4th round, and 340 hours for the 5th round. Washing frequency was 1 time (2 hours) in the 1st round, 2 times (every 10 hours) in the 2nd round, 6 times (every 10 hours) in the 3rd round, 14 times (every 10 hours) in the 4th round, and 36 times (every 10 hours) in the 5th round.

Substance | ELISA S/N(SA)
C4m3127-4th-NNS6-2 (GGCWHPSLPIYSPHFCPL; C4m3127-4th-NNS6-2) [Clone C4m3127-4th-NNS6-2] | 12.8
C4m3127-4th-NNS6-3 (GGCSHPFLPIWSVHFCGQ; C4m3127-4th-NNS6-3) [Clone C4m3127-4th-NNS6-3] | 10.9
C4m3127-4th-NNS6-7 (GGCRHPFLPIRSPHFCGS; C4m3127-4th-NNS6-7) [Clone C4m3127-4th-NNS6-7] | 4.7
C4m3127-4th-NNS6-12 (GGCSHPFLPIRSRHFCPF; C4m3127-4th-NNS6-12) [Clone C4m3127-4th-NNS6-12] | 15.8
C4m3127-4th-NNS6-16 (GGCWHPYLPIFSVHFCPR; C4m3127-4th-NNS6-16) [Clone C4m3127-4th-NNS6-16] | 16.5
C4m3127-4th-NNS6-17 (GGCRHPVLPIVSLHFCPG; C4m3127-4th-NNS6-17) [Clone C4m3127-4th-NNS6-17] | 20.4
C4m3127-4th-NNS6-19 (GGCMHPSLPIWSWHFCPH; C4m3127-4th-NNS6-19) [Clone C4m3127-4th-NNS6-19] | 4.1
C4m3127-4th-NNS6-20 (GGCLHPFLPILSLHFCPF; C4m3127-4th-NNS6-20) [Clone C4m3127-4th-NNS6-20] | 4.4
C4m3127-4th-NNS6-26 (GGCAHPALPIWSCHFCPF; C4m3127-4th-NNS6-26) [Clone C4m3127-4th-NNS6-26] | 7.1
C4m3127-4th-NNS6-28 (GGCLHPFLPIFSSHFCAL; C4m3127-4th-NNS6-28) [Clone C4m3127-4th-NNS6-28] | 23.2
C4m3127-4th-NNS6-30 (GGCWHPCLPILSPHFCPR; C4m3127-4th-NNS6-30) [Clone C4m3127-4th-NNS6-30] | 7.5
C4m3127-4th-NNS6-48 (GGCFHPWLPIASWHFCGR; C4m3127-4th-NNS6-48) [Clone C4m3127-4th-NNS6-48] | 13.5
C4m3127-4th-NNS6-60 (GGCWHPFLPISSWHFCGL; C4m3127-4th-NNS6-60) [Clone C4m3127-4th-NNS6-60] | 11.9
C4m3127-4th-NNS6-64 (GGCLHPYLPIVSSHFCPF; C4m3127-4th-NNS6-64) [Clone C4m3127-4th-NNS6-64] | 12.9
C4m3127-4th-NNS6-66 (GGCAHPHLPIRSVHFCSF; C4m3127-4th-NNS6-66) [Clone C4m3127-4th-NNS6-66] | 4.8
C4m3127-4th-NNS6-70 (GGCSHPYLPIHSRHFCLS; C4m3127-4th-NNS6-70) [Clone C4m3127-4th-NNS6-70] | 4.6
C4m3127-4th-NNS6-72 (GGCVHPYLPISSIHFCSM; C4m3127-4th-NNS6-72) [Clone C4m3127-4th-NNS6-72] | 20.0
C4m3127-4th-NNS6-79 (GGCLHPFLPIRSVHFCLR; C4m3127-4th-NNS6-79) [Clone C4m3127-4th-NNS6-79] | 12.8
C4m3127-4th-NNS6-80 (GGCGHPFLPIFSLHFCPR; C4m3127-4th-NNS6-80) [Clone C4m3127-4th-NNS6-80] | 12.8
C4m3127-4th-NNS6-83 (GGCRHPFLPIFSKHFCEL; C4m3127-4th-NNS6-83) [Clone C4m3127-4th-NNS6-83] | 20.7
C4m3127-4th-NNS6-85 (GGCGHPFLPIFSSHFCPL; C4m3127-4th-NNS6-85) [Clone C4m3127-4th-NNS6-85] | 9.1
C4m3127-4th-NNS6-87 (GGCRHPWLPIVSWHFCSR; C4m3127-4th-NNS6-87) [Clone C4m3127-4th-NNS6-87] | 21.4
C4m3127-4th-NNS6-89 (GGCWHPFLPIFSAHFCMR; C4m3127-4th-NNS6-89) [Clone C4m3127-4th-NNS6-89] | 6.6

Substance | ELISA S/N(SA)
C4m3127-4th-NNS6-90 (GGCKHPVLPIVSLHFCPW; C4m3127-4th-NNS6-90) [Clone C4m3127-4th-NNS6-90] | 22.9
C4m3127-4th-NNS6-94 (GGCRHPVLPIWSSHFCPW; C4m3127-4th-NNS6-94) [Clone C4m3127-4th-NNS6-94] | 5.9
C4m#19-5th2w-NNS6-3 (GGCAHPFLPIFSPHFCPF; C4m#19-5th2w-NNS6-3) | 18.4
C4m#19-5th2w-NNS6-4 (GGCFHPWLPISSLHFCPF; C4m#19-5th2w-NNS6-4) | 6.3
C4m#19-5th2w-NNS6-6 (GGCWHPYLPILSLHFCQR; C4m#19-5th2w-NNS6-6) | 10.3
C4m#19-5th2w-NNS6-8 (GGCRHPFLPIFSLHFCAR; C4m#19-5th2w-NNS6-8) | 16.5
C4m#19-5th2w-NNS6-12 (GGCWHPYLPIRSVHFCGR; C4m#19-5th2w-NNS6-12) | 20.4
C4m#19-5th2w-NNS6-14 (GGCWHPFLPIRSYHFCPW; C4m#19-5th2w-NNS6-14) | 34.7
C4m#19-5th2w-NNS6-21 (GGCWHPFLPIRSSHFCPS; C4m#19-5th2w-NNS6-21) | 31.1
C4m#19-5th2w-NNS6-22 (GGCMHPFLPIQSVHFCSR; C4m#19-5th2w-NNS6-22) | 29.3
C4m#19-5th2w-NNS6-25 (GGCKHPFLPISSHHFCPY; C4m#19-5th2w-NNS6-25) | 21.1
C4m#19-5th2w-NNS6-26 (GGCLHPFLPIVSIHFCSA; C4m#19-5th2w-NNS6-26) | 5.8
C4m#19-5th2w-NNS6-27 (GGCFHPFLPIRSCHFCAR; C4m#19-5th2w-NNS6-27) | 9.9
C4m#19-5th2w-NNS6-28 (GGCAHPYLPIRSVHFCPC; C4m#19-5th2w-NNS6-28) | 6.3
C4m#19-5th2w-NNS6-30 (GGCWHPFLPILSWHFCGR; C4m#19-5th2w-NNS6-30) | 9.0
C4m#19-5th2w-NNS6-33 (GGCRHPFLPIWSFHFCWG; C4m#19-5th2w-NNS6-33) | 9.4
C4m#19-5th2w-NNS6-34 (GGCCHPFLPIYSVHFCAS; C4m#19-5th2w-NNS6-34) | 5.0
C4m#19-5th2w-NNS6-37 (GGCIHPFLPIWSIHFCSR; C4m#19-5th2w-NNS6-37) | 9.4
C4m#19-5th2w-NNS6-43 (GGCRHPFLPIWSSHFCAA; C4m#19-5th2w-NNS6-43) | 4.8
C4m#19-5th2w-NNS6-45 (GGCRHPFLPIWSVHFCWR; C4m#19-5th2w-NNS6-45) | 11.0
C4m#19-5th2w-NNS6-46 (GGCFHPFLPIFSYHFCGL; C4m#19-5th2w-NNS6-46) | 6.1
C4m#19-5th2w-NNS6-51 (GGCRHPFLPIVSLHFCPF; C4m#19-5th2w-NNS6-51) | 15.8

Same assay, conditions: S/N ratio of CTLA-4 binding in ELISA; clones from 4th or 5th round of Affinity Maturation from random (NNS) library

Substance | ELISA S/N(SA)
C4m3127-4th-NNS6-37 (GGCWHPVLPIRSIHFCGC; C4m3127-4th-NNS6-37) [Clone C4m3127-4th-NNS6-37] | 3.5
C4m3127-4th-NNS6-95 (GGCWHPVLPIRSGHFCSR; C4m3127-4th-NNS6-95) [Clone C4m3127-4th-NNS6-95] | 3.4
C4m#19-5th2w-NNS6-41 (GGCWHPVLPIRSDHFCCR; C4m#19-5th2w-NNS6-41) | 3.1
